Experimental data published in patent US20200199214A1 (Hoffmann-La Roche, published 2020).

Experiments:
[1] = target: T1, cynomolgus IL-1 beta (Sino Biological 90010-CNAE) (cynomolgus, UniProt P79182 117-268); test: SPR, Fab captured via anti-Fab antibody, cynomolgus IL-1beta injected, 1:1 Langmuir fit
T1 sequence (looked up): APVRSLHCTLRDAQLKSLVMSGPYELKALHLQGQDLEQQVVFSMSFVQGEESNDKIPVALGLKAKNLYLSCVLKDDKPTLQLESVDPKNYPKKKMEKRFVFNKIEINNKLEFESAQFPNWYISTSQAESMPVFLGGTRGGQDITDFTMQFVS
Experimental: An anti-Fab capturing antibody (GE Healthcare 28958325) was immobilized to a Series S Sensor Chip C1 (GE Healthcare 29104990) using standard amine coupling chemistry resulting in a surface density of approximately 500 resonance units (RU). The bispecific anti-VEGF/anti-IL-1beta Fab fragment was captured to the surface with resulting capture levels of approximately 20 RU. A dilution series ranging from 0.74 to 60 nM (1:3 dilution) of either human IL-1 beta (PeproTech 200-01B) or cynomolgus IL-1 beta (Sino Biological 90010-CNAE) was injected for 90 s, dissociation was monitored for at least 600 s at a flow rate of 30 μl/min. The surface was regenerated by two consecutive injections of 10 mM Glycine pH 2.1 for 60 s each. Bulk refractive index differences were corrected by subtracting blank injections and by subtracting the response obtained from the control flow cell without captured bispecific anti-VEGF/anti-IL-1beta Fab fragment. Curve fitting was performed using the 1:1 Langmuir binding model within the Biacore evaluation software.
(§1) Binding kinetics to VEGF and IL-1beta for the candidate antibodies were assessed as described in Example 3 using the indicated bispecific anti-VEGF/anti-IL-1beta Fab fragments (amino acid sequence as illustrated in Table 3). For comparison, antigen binding kinetics of prior art anti-VEGF/anti-IL-1beta antibody 0032, a full length IgG antibody, as disclosed in WO2016/075034 are depicted.

[2] = target: T2, human IL-1 beta (PeproTech 200-01B) (human, UniProt P01584 117-269); test: SPR competition: Fab preincubated with 50 nM IL-1beta, injected over immobilised IL-1bR1 (competitor); in presence of VEGF
T2 construct: As printed it covers only the N-terminal part of the precursor, so it was not used; also called huIL-1 beta; IL1β
Experimental: (§2) As running and dilution buffer, HBS-P+(10 mM HEPES, 150 mM NaCl pH 7.4, 0.05% Surfactant P20) was used.
(§3) For assessing VEGF-receptor binding inhibition, a final concentration of 200 nM of R07200394 or 400 nM antibody 0032 was preincubated with 50 nM VEGF121. For assessing IL-1beta-receptor binding inhibition, a final concentration of 200 nM of R07200394 or 200 nM antibody 0032 was with preincubated with 50 nM IL-1beta. Samples were diluted (1:2) in the corresponding 50 nM VEGF121 or IL-1beta solution.
(§4) The antibody/ligand mixtures were injected onto the VEGFR2 or IL-1R1 surface for 60 s at a flow rate of 5 μl/min. After a dissociation phase for 60 s, the VEGFR2 surface was regenerated by injecting 5 mM NaOH for 60 s, whereas the IL-1R1 surface was regenerated by injecting 10 mM Glycine pH 3.0 followed by 5 mM NaOH for 60 s each. Bulk refractive index differences were corrected by subtracting blank injections and by subtracting the response obtained from the blank control flow cell. For evaluation, the binding response 5 seconds after inject end was taken. The derived response in RU was transformed to a binding response relative to the initial signal corresponding to the ligand(s) without antibody. IC50 values were calculated using a 4 parameter logistic model (XLfit, ID Business Solutions Ltd.)

[3] = target: T2, human IL-1 beta (PeproTech 200-01B); test: SPR competition: Fab (from 200 nM, 1:2 dilutions) preincubated with 50 nM IL-1beta, injected over immobilised IL-1bR1 (competitor); without VEGF
Experimental: as §2, §3, §4

Human VEGF121-His = target: T3, Human VEGF121-His (human, UniProt P15692-9 27-147); test: SPR, VEGF121-His captured via anti-His antibody, Fab injected, single cycle kinetics, 1:1 Langmuir fit
T3 construct: not shown: His tag
T3 sequence (looked up): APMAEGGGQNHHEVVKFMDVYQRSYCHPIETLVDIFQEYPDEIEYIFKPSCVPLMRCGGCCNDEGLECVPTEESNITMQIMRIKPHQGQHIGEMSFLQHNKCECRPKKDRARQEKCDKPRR
Experimental: An anti-His capturing antibody (GE Healthcare 28995056) was immobilized to a Series S Sensor Chip C1 (GE Healthcare 29104990) using standard amine coupling chemistry resulting in a surface density of approximately 500 resonance units (RU). As running and dilution buffer, HBS-P+(10 mM HEPES, 150 mM NaCl pH 7.4, 0.05% Surfactant P20) was used. Human VEGF121-His was captured to the surface with resulting ligand densities of approximately 10 and 20 RU, respectively. A dilution series of the bispecific anti-VEGF/anti-IL-1beta Fab fragment (1.2-100 nM, 1:3 dilution) was successively injected for 90 s each, dissociation was monitored for 3600 s at a flow rate of 30 μl/min (single cycle kinetics). The surface was regenerated by injecting 10 mM Glycine pH 1.5 for 60 s. Bulk refractive index differences were corrected by subtracting blank injections and by subtracting the response obtained from the control flow cell without captured human VEGF121. Curve fitting was performed using the 1:1 Langmuir binding model within the Biacore evaluation software. To provide more robust fitting, the Multiple Rmax option was chosen for global fitting using both ligand densities.
as §1

Kd [1]: 0.027 nM | koff [1]: 7.94e-05 s⁻¹ | kon [1]: 2.97e+06 M⁻¹ s⁻¹ | t½ [1]: 2.43 h | IC50 [2]: 24 nM | IC50 [3]: 22 nM | Kd (Human VEGF121-His): 0.006 nM | koff (Human VEGF121-His): 1.63e-05 s⁻¹ | kon (Human VEGF121-His): 2.85e+06 M⁻¹ s⁻¹ | t½ (Human VEGF121-His): 11.8 h
B1: bispecific anti-VEGF/anti-IL-1beta Fab fragment RO7200394 (Fab, V domains shown)
VH: DEQLVESGGGLVKPGGSLRLSCAAEGMVFKWNDMSWVRQAPGKGLEWVGSISKKGDHKYLNTKFIGRFTISRDNEKDTLYLQMNSLRAEDTAVYYCAKDVGFFDIWGQGTLVTVSS
VL: AIYMHQEPSSLSASVGDRVTITCHGSYWLSSLVAWYQQKPGKAPKLLIYDAKYKHLGVPSRFSGSKEDQEFTLTISSLQPEDFATYYCQQYRYHPYTFGHGTKVEIKR
notes: same variable domains as 1HVL12.85; also called R07200394
